Data published in the supplement of paper PMC10567573.

B1: TRIM14 (parent)
chain: YARTPTLDPDTMHARLRLSADRLT
B2: STK38L (parent)
chain: FCIDSENRIGNSGVEEIKGHPFFE

Variants of: B1
Assay: protein stability index of a GFP-peptide fusion (GPS, HEK-293T) (PSI 1-6); higher = more stable
Settings: c terminus: a fixed tail appended
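Also: lentivirally expressed fusions sorted by FACS into six bins by GFP to DsRed ratio, PSI derived from sequencing read proportions per bin multiplied by bin number.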

Protein stability index, by site and new letter:
R17: F 2.02 | C 2.25 | D 3.18 | P 2.84 | W 1.42 | T 2.91 | N 3.2 | Y 2.27 | H 2.73
T4: A 2.37 | D 2.6 | M 2.45 | W 1.17 | C 1.95 | L 2.16 | Y 2.32 | N 3.1 | S 2.47
L18: W 2.18 | G 2.06 | I 2.78 | V 2.62 | N 3.3 | C 2.62
S19: G 2.21 | T 2.77 | Q 2.72 | L 2.33 | I 2.79 | H 2.26 | F 1.99 | W 1.77
M12: F 2.01 | P 3.2 | D 3.94 | K 2.72 | H 3.13 | Q 2.68 | V 2.06 | S 3.21 | C 2.34
L16: E 3.5 | V 2.49 | M 2.67 | K 3.01 | W 2.56 | T 3.02 | R 3.27
P9: H 2.92 | M 3.07 | Y 2.22 | L 2.1 | R 2.96 | K 3.15 | S 2.04 | G 3.11 | T 2.58 | W 2.17 | D 2.98 | V 2.41
D8: H 1.87 | A 2.15 | C 2.1 | Q 2.52 | L 2.41 | W 2.08 | R 1.98 | M 2.22
H13: F 2.63 | N 2.75 | C 2.27 | W 2.51 | K 2.15
T6: C 2.34 | F 2.24 | E 2.94 | Q 2.33 | D 3.4 | Y 1.94 | I 2.1 | N 1.96 | L 2.56 | G 2.37 | W 2.79
L7: Y 2.63 | V 3.33 | G 2.44 | N 2.54 | I 1.94 | M 2.81 | K 2.56 | F 2.54 | D 3.54 | W 2.31 | T 2.46
R22: H 2.97 | A 2.57 | S 2.81 | F 2.52 | I 2.74 | E 3.31 | M 2.16 | G 2.76 | D 3.09 | C 2.76
Y1: N 3.52 | F 2.21 | V 3.68 | E 4.17 | K 3.71 | M 3.71
A2: D 3.32 | P 3.9 | C 2.53 | T 2.46 | Q 2.71 | L 2.77 | V 1.89 | K 2.98 | N 3.09 | R 2.85
A20: I 2.85 | P 2.6 | T 2.5 | Y 2.18 | K 3.38 | G 2.37 | C 2.14 | D 2.83
R15: I 2.87 | A 2.81 | E 3.25 | K 2.45 | M 2.73 | P 2.83 | S 3.53 | L 2.29 | Y 2.26 | N 2.61
D10: N 3.23 | P 2.31 | A 1.98 | L 2.05 | W 3.31 | V 2.78 | E 2.66 | Q 2.56 | H 2.29
P5: K 3.12 | G 2.88 | A 2.08 | M 1.54 | H 2.84
L23: Y 2.44 | C 2.51 | K 3.43 | R 3.21 | E 4.03 | A 2.96 | H 3.21 | S 2.73 | Q 3.12 | I 2.62 | P 2.67 | N 2.87
T24: E 3.02 | D 3.87 | S 2.54 | W 1.73 | M 2.48 | Q 2.67 | F 1.65 | K 3.2 | R 3.13 | Y 2.08 | C 2.51
D21: R 2.02 | W 1.62 | C 2.77 | Q 2.91 | H 3.32 | G 2.08 | V 1.52 | F 2.34
A14: Y 1.98 | I 2.13 | H 2.04 | K 1.83 | D 3.25 | E 2.67 | S 3.02 | R 2.13 | M 2.36
R3: H 3.12 | P 1.76 | W 1.92 | D 3.8 | K 2.87 | F 1.85 | N 3.14 | I 2.57 | S 2.86 | C 3.02 | T 3.05 | M 2.53
T11: I 2.26 | Q 2.81 | S 2.66 | Y 2.9 | W 2.15 | V 2.36 | L 2.27 | F 2.04

Variants of: B2
Assay: as above
Settings: c terminus: a fixed tail appended

Protein stability index of substitutions, site by site:
E6: T 1.74 | F 1.46 | Y 1.71 | W 1.35 | M 2.89 | D 1.91 | Q 1.73 | A 1.37 | K 2.12 | I 2.23 | L 2.21 | G 1.98 | H 2.16 | P 1.48 | N 1.59 | R 2 | C 1.77 | V 1.8 | S 2.86
I3: H 2.75 | Q 3.06 | A 2.04 | N 3.43 | G 3.29 | P 1.85 | W 2.19 | C 1.96 | M 2.9 | E 3.95 | V 3.26 | F 2.23 | L 2.57 | D 4.02 | T 3.6 | Y 2.16 | R 2.49 | S 2.3 | K 2.5
F1: N 4.4 | I 3.24 | V 3.77 | Q 4.91 | W 3.19 | E 4.61 | S 4.34 | A 4.85 | K 4.3 | H 4.55 | Y 2.48 | G 4.26 | P 4.45 | M 4.78 | D 4.9 | L 3.66 | C 2.84 | T 4.42 | R 5.09
D4: I 2.24 | G 2 | P 3.47 | W 1.84 | V 2.22 | H 2.8 | T 2.44 | M 2.86 | L 1.25 | E 2.91 | A 2.09 | F 1.46 | S 1.3 | Y 2.07 | K 2.83 | N 1.89 | Q 2.78 | R 1.7
S5: R 2.21 | F 2.3 | L 1.06 | Q 2.49 | E 3.39 | K 1.9 | T 2.25 | D 2.61 | M 2.12 | N 2.4 | Y 1.88 | C 2 | G 2.53 | A 1.95 | I 2.44 | H 2.5 | P 1.47 | V 1.9
C2: I 2.69 | N 2.93 | M 3.58 | F 3.12 | K 3.37 | V 2.03 | L 2.94 | Q 2.33 | G 4.21 | Y 2.61 | E 4.7 | W 2.62 | H 1.99 | A 2.58 | D 3.12 | T 3.25 | R 3 | S 3.61 | P 2.39
N7: C 1.06 | E 2.87 | H 1.91 | A 2.93 | D 2.43 | G 2.26 | L 2.24 | I 1.58 | K 2.25
